Starred links: 1 amine or outer side, 2 acyl side, 3 side chain; linkers in the order of their positions; H or OH if unused. Non-standard residues stand in square brackets, D forms with d. Groups on a side chain read outwards from the residue. No end group written: not given here. *: point of attachment. C20 diacid = O=C(O)CCCCCCCCCCCCCCCCCCC(=O)*; C18 diacid = O=C(O)CCCCCCCCCCCCCCCCC(=O)*; γGlu = O=C(O)[C@H](CCC(=O)[*:2])N[*:1]; αMeF = C[C@](N)(Cc1ccccc1)C(=O)O; AEEA = NCCOCCOCC(=O)O; Aib = CC(C)(N)C(=O)O
B1: Peptide 151 (peptide)
peptide: H[Aib]QGTFTSDVSK[αMeF]LDSK([AEEA-AEEA-γGlu-C20 diacid])RAQDFVRWLL[Aib]TE-OH
modifications: N-terminus assumed
SMILES: CC(C)C[C@H](NC(=O)[C@H](Cc1c[nH]c2ccccc12)NC(=O)[C@H](CCCNC(=N)N)NC(=O)[C@@H](NC(=O)[C@H](Cc1ccccc1)NC(=O)[C@H](CC(=O)O)NC(=O)[C@H](CCC(N)=O)NC(=O)[C@H](C)NC(=O)[C@H](CCCNC(=N)N)NC(=O)[C@H](CCCCNC(=O)COCCOCCNC(=O)COCCOCCNC(=O)CC[C@H](NC(=O)CCCCCCCCCCCCCCCCCCC(=O)O)C(=O)O)NC(=O)[C@H](CO)NC(=O)[C@H](CC(=O)O)NC(=O)[C@H](CC(C)C)NC(=O)[C@](C)(Cc1ccccc1)NC(=O)[C@H](CCCCN)NC(=O)[C@H](CO)NC(=O)[C@@H](NC(=O)[C@H](CC(=O)O)NC(=O)[C@H](CO)NC(=O)[C@@H](NC(=O)[C@H](Cc1ccccc1)NC(=O)[C@@H](NC(=O)CNC(=O)[C@H](CCC(N)=O)NC(=O)C(C)(C)NC(=O)[C@@H](N)Cc1c[nH]cn1)[C@@H](C)O)[C@@H](C)O)C(C)C)C(C)C)C(=O)N[C@@H](CC(C)C)C(=O)NC(C)(C)C(=O)N[C@H](C(=O)N[C@@H](CCC(=O)O)C(=O)O)[C@@H](C)O
B2: Peptide 147 (peptide)
peptide: H[Aib]QGTFTSDVSK[αMeF]LDSK([AEEA-AEEA-γGlu-C18 diacid])RAQDFVRWLEA[Aib]G-OH
modifications: N-terminus assumed
SMILES: CC(C)C[C@H](NC(=O)[C@H](Cc1c[nH]c2ccccc12)NC(=O)[C@H](CCCNC(=N)N)NC(=O)[C@@H](NC(=O)[C@H](Cc1ccccc1)NC(=O)[C@H](CC(=O)O)NC(=O)[C@H](CCC(N)=O)NC(=O)[C@H](C)NC(=O)[C@H](CCCNC(=N)N)NC(=O)[C@H](CCCCNC(=O)COCCOCCNC(=O)COCCOCCNC(=O)CC[C@H](NC(=O)CCCCCCCCCCCCCCCCC(=O)O)C(=O)O)NC(=O)[C@H](CO)NC(=O)[C@H](CC(=O)O)NC(=O)[C@H](CC(C)C)NC(=O)[C@](C)(Cc1ccccc1)NC(=O)[C@H](CCCCN)NC(=O)[C@H](CO)NC(=O)[C@@H](NC(=O)[C@H](CC(=O)O)NC(=O)[C@H](CO)NC(=O)[C@@H](NC(=O)[C@H](Cc1ccccc1)NC(=O)[C@@H](NC(=O)CNC(=O)[C@H](CCC(N)=O)NC(=O)C(C)(C)NC(=O)[C@@H](N)Cc1c[nH]cn1)[C@@H](C)O)[C@@H](C)O)C(C)C)C(C)C)C(=O)N[C@@H](CCC(=O)O)C(=O)N[C@@H](C)C(=O)NC(C)(C)C(=O)NCC(=O)O
B3: Peptide 145 (peptide)
peptide: H[Aib]QGTFTSDVSK[αMeF]LDSK([AEEA-AEEA-γGlu-C18 diacid])RAQDFVRWLASRGI-OH
modifications: N-terminus assumed
SMILES: CC[C@H](C)[C@H](NC(=O)CNC(=O)[C@H](CCCNC(=N)N)NC(=O)[C@H](CO)NC(=O)[C@H](C)NC(=O)[C@H](CC(C)C)NC(=O)[C@H](Cc1c[nH]c2ccccc12)NC(=O)[C@H](CCCNC(=N)N)NC(=O)[C@@H](NC(=O)[C@H](Cc1ccccc1)NC(=O)[C@H](CC(=O)O)NC(=O)[C@H](CCC(N)=O)NC(=O)[C@H](C)NC(=O)[C@H](CCCNC(=N)N)NC(=O)[C@H](CCCCNC(=O)COCCOCCNC(=O)COCCOCCNC(=O)CC[C@H](NC(=O)CCCCCCCCCCCCCCCCC(=O)O)C(=O)O)NC(=O)[C@H](CO)NC(=O)[C@H](CC(=O)O)NC(=O)[C@H](CC(C)C)NC(=O)[C@](C)(Cc1ccccc1)NC(=O)[C@H](CCCCN)NC(=O)[C@H](CO)NC(=O)[C@@H](NC(=O)[C@H](CC(=O)O)NC(=O)[C@H](CO)NC(=O)[C@@H](NC(=O)[C@H](Cc1ccccc1)NC(=O)[C@@H](NC(=O)CNC(=O)[C@H](CCC(N)=O)NC(=O)C(C)(C)NC(=O)[C@@H](N)Cc1c[nH]cn1)[C@@H](C)O)[C@@H](C)O)C(C)C)C(C)C)C(=O)O
B4: Peptide 150 (peptide)
peptide: H[Aib]QGTFTSDVSK[αMeF]LDSK([AEEA-AEEA-γGlu-C18 diacid])RAQDFVQWLL[Aib]TE-OH
modifications: N-terminus assumed
SMILES: CC(C)C[C@H](NC(=O)[C@H](Cc1c[nH]c2ccccc12)NC(=O)[C@H](CCC(N)=O)NC(=O)[C@@H](NC(=O)[C@H](Cc1ccccc1)NC(=O)[C@H](CC(=O)O)NC(=O)[C@H](CCC(N)=O)NC(=O)[C@H](C)NC(=O)[C@H](CCCNC(=N)N)NC(=O)[C@H](CCCCNC(=O)COCCOCCNC(=O)COCCOCCNC(=O)CC[C@H](NC(=O)CCCCCCCCCCCCCCCCC(=O)O)C(=O)O)NC(=O)[C@H](CO)NC(=O)[C@H](CC(=O)O)NC(=O)[C@H](CC(C)C)NC(=O)[C@](C)(Cc1ccccc1)NC(=O)[C@H](CCCCN)NC(=O)[C@H](CO)NC(=O)[C@@H](NC(=O)[C@H](CC(=O)O)NC(=O)[C@H](CO)NC(=O)[C@@H](NC(=O)[C@H](Cc1ccccc1)NC(=O)[C@@H](NC(=O)CNC(=O)[C@H](CCC(N)=O)NC(=O)C(C)(C)NC(=O)[C@@H](N)Cc1c[nH]cn1)[C@@H](C)O)[C@@H](C)O)C(C)C)C(C)C)C(=O)N[C@@H](CC(C)C)C(=O)NC(C)(C)C(=O)N[C@H](C(=O)N[C@@H](CCC(=O)O)C(=O)O)[C@@H](C)O
B5: Peptide 148 (peptide)
peptide: H[Aib]QGTFTSDVSK[αMeF]LDSK([AEEA-AEEA-γGlu-C18 diacid])RAQDFVRWIAE[Aib]G-OH
modifications: N-terminus assumed
SMILES: CC[C@H](C)[C@H](NC(=O)[C@H](Cc1c[nH]c2ccccc12)NC(=O)[C@H](CCCNC(=N)N)NC(=O)[C@@H](NC(=O)[C@H](Cc1ccccc1)NC(=O)[C@H](CC(=O)O)NC(=O)[C@H](CCC(N)=O)NC(=O)[C@H](C)NC(=O)[C@H](CCCNC(=N)N)NC(=O)[C@H](CCCCNC(=O)COCCOCCNC(=O)COCCOCCNC(=O)CC[C@H](NC(=O)CCCCCCCCCCCCCCCCC(=O)O)C(=O)O)NC(=O)[C@H](CO)NC(=O)[C@H](CC(=O)O)NC(=O)[C@H](CC(C)C)NC(=O)[C@](C)(Cc1ccccc1)NC(=O)[C@H](CCCCN)NC(=O)[C@H](CO)NC(=O)[C@@H](NC(=O)[C@H](CC(=O)O)NC(=O)[C@H](CO)NC(=O)[C@@H](NC(=O)[C@H](Cc1ccccc1)NC(=O)[C@@H](NC(=O)CNC(=O)[C@H](CCC(N)=O)NC(=O)C(C)(C)NC(=O)[C@@H](N)Cc1c[nH]cn1)[C@@H](C)O)[C@@H](C)O)C(C)C)C(C)C)C(=O)N[C@@H](C)C(=O)N[C@@H](CCC(=O)O)C(=O)NC(C)(C)C(=O)NCC(=O)O
B6: Peptide 146 (peptide)
peptide: H[Aib]QGTFTSDVSK[αMeF]LDSK([AEEA-AEEA-γGlu-C18 diacid])RAQDFVRWLASR-OH
modifications: N-terminus assumed
SMILES: CC(C)C[C@H](NC(=O)[C@H](Cc1c[nH]c2ccccc12)NC(=O)[C@H](CCCNC(=N)N)NC(=O)[C@@H](NC(=O)[C@H](Cc1ccccc1)NC(=O)[C@H](CC(=O)O)NC(=O)[C@H](CCC(N)=O)NC(=O)[C@H](C)NC(=O)[C@H](CCCNC(=N)N)NC(=O)[C@H](CCCCNC(=O)COCCOCCNC(=O)COCCOCCNC(=O)CC[C@H](NC(=O)CCCCCCCCCCCCCCCCC(=O)O)C(=O)O)NC(=O)[C@H](CO)NC(=O)[C@H](CC(=O)O)NC(=O)[C@H](CC(C)C)NC(=O)[C@](C)(Cc1ccccc1)NC(=O)[C@H](CCCCN)NC(=O)[C@H](CO)NC(=O)[C@@H](NC(=O)[C@H](CC(=O)O)NC(=O)[C@H](CO)NC(=O)[C@@H](NC(=O)[C@H](Cc1ccccc1)NC(=O)[C@@H](NC(=O)CNC(=O)[C@H](CCC(N)=O)NC(=O)C(C)(C)NC(=O)[C@@H](N)Cc1c[nH]cn1)[C@@H](C)O)[C@@H](C)O)C(C)C)C(C)C)C(=O)N[C@@H](C)C(=O)N[C@@H](CO)C(=O)N[C@@H](CCCNC(=N)N)C(=O)O
B7: Peptide 149 (peptide)
peptide: H[Aib]QGTFTSDVSK[αMeF]LDSK([AEEA-AEEA-γGlu-C18 diacid])RAQDFVRWVVE[Aib]G-OH
modifications: N-terminus assumed
SMILES: CC(C)C[C@H](NC(=O)[C@](C)(Cc1ccccc1)NC(=O)[C@H](CCCCN)NC(=O)[C@H](CO)NC(=O)[C@@H](NC(=O)[C@H](CC(=O)O)NC(=O)[C@H](CO)NC(=O)[C@@H](NC(=O)[C@H](Cc1ccccc1)NC(=O)[C@@H](NC(=O)CNC(=O)[C@H](CCC(N)=O)NC(=O)C(C)(C)NC(=O)[C@@H](N)Cc1c[nH]cn1)[C@@H](C)O)[C@@H](C)O)C(C)C)C(=O)N[C@@H](CC(=O)O)C(=O)N[C@@H](CO)C(=O)N[C@@H](CCCCNC(=O)COCCOCCNC(=O)COCCOCCNC(=O)CC[C@H](NC(=O)CCCCCCCCCCCCCCCCC(=O)O)C(=O)O)C(=O)N[C@@H](CCCNC(=N)N)C(=O)N[C@@H](C)C(=O)N[C@@H](CCC(N)=O)C(=O)N[C@@H](CC(=O)O)C(=O)N[C@@H](Cc1ccccc1)C(=O)N[C@H](C(=O)N[C@@H](CCCNC(=N)N)C(=O)N[C@@H](Cc1c[nH]c2ccccc12)C(=O)N[C@H](C(=O)N[C@H](C(=O)N[C@@H](CCC(=O)O)C(=O)NC(C)(C)C(=O)NCC(=O)O)C(C)C)C(C)C)C(C)C

Target: human GLP-1 receptor (hGLP-1R) (human, UniProt P43220 24-463)
Test: cell-based or functional assay

hGLP-1R EC50 (pM)	Binder
111 pM	B1
15.3 pM	B2
22.6 pM	B3
166 pM	B4
40.2 pM	B5
24.6 pM	B6
8.71 pM	B7

Target: human glucagon receptor (hGCGR) (human, UniProt P47871 26-477)
Sequence (P47871 26-477): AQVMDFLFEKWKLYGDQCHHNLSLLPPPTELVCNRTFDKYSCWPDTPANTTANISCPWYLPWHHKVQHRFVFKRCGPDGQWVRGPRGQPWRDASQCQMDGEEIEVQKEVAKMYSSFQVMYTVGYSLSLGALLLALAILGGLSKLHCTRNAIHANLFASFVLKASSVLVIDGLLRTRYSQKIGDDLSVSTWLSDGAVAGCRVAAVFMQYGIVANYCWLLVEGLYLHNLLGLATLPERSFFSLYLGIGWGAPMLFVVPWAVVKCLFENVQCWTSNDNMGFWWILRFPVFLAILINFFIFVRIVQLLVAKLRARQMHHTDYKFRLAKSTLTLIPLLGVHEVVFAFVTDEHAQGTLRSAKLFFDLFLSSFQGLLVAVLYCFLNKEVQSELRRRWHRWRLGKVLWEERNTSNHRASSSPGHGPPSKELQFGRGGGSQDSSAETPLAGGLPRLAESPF
Test: cell-based or functional assay

hGluc-R EC50 (pM)	Binder
178 pM	B1
43.5 pM	B2
4590 pM	B3
355 pM	B4
568 pM	B5
1630 pM	B6
2650 pM	B7

— US20230357348A1 (AstraZeneca / MedImmune, published 2023)
